From publication PMC9650048

How the values were obtained:
[1] = target: histone deacetylase 1 (HDAC1), Xenopus (Xenopus laevis (endogenous in egg nucleoplasmic extract)); assay: immunodepletion (co-depletion), Western blot of the depleted extract; antibody on Protein-A Sepharose incubated with NPE at 4 °C for 1 h over two rounds; depleted extract blotted
[2] = target: histone deacetylase 1 (HDAC1), Xenopus (Xenopus laevis (endogenous in egg nucleoplasmic extract)); assay: co-IP; sequential IPs from NPE diluted 5x in ELB (10 mM Hepes-KOH pH 7.7, 2.5 mM MgCl2, 50 mM KCl, 250 mM sucrose), serum or antibody on Protein-A Sepharose, 4 °C 120 min, three washes; first round HDAC1 or HDAC2 IP, second round the converse antibody on the supernatant; supernatant and pellet by Western blot

percent of HDAC2 codepleted with HDAC1 [1]: 50% | percent of HDAC2 removed by the HDAC1 IP [2]: 50%
Substance: histone deacetylase 2 (HDAC2), Xenopus (enzyme)
